Reference: article PMC8675452

Target: biotinylated MPER peptide (MPERbiot) (HIV (strain not stated))
Assay: BLI

trispecific anti-HIV antibody (SAR441236)
koff: 0.00126 s⁻¹
